B1: DAXX-binding motif of ATRX, ATRX_(1,260–1,289) [not stated] / DAXX helical bundle (DHB) domain, DAXX_(55–144) [not stated] (parent complex)
chain 1: DDDDDNDPENRIAKKMLLEEIKANLSSDED
chain 2: GKKCYKLENEKLFEEFLELCKMQTADHPEVVPFLYNRQQRAHSLFLASAEFCNILSRVLSRARSRPAKLYVYINELCTVLKAHSAKKKLN
B2: ATRX_(1,253–1,326) [not stated] / DAXX helical bundle (DHB) domain, DAXX_(55–144) [not stated] (parent complex)
chain 1: SVPVTVDDDDDDNDPENRIAKKMLLEEIKANLSSDEDGSSDDEPEEGKKRTGKQNEENPGDEEAKNQVNSESDS
chain 2: B1 chain 2

Variants of: B1
Assay: ITC
With chain 1 DDDDDNAPANRIAKKMLLEEIKANLSSDED [chain 1 D7A, chain 1 E9A] the Kd was 1.75 µM. chain 1 AAAAANDPENRIAKKMLLEEIKANLSSDED [chain 1 D1A, chain 1 D2A, chain 1 D3A, chain 1 D4A, chain 1 D5A] gave a Kd of 0.85 µM.

Variants of: B2
Assay: ITC
Variant chain 1 SVPVTVDDDDDDNDPENRIAKKMLREEIKANLSSDEDGSSDDEPEEGKKRTGKQNEENPGDEEAKNQVNSESDS [chain 1 L25R] has a Kd of 0.97 µM. chain 1 SVPVTVDDDDDDNDPENRIAKKMALEEAKANLSSDEDGSSDDEPEEGKKRTGKQNEENPGDEEAKNQVNSESDS [chain 1 L24A, chain 1 I28A] gave a Kd of 12 µM. Variant chain 1 SVPVTVDDDDDDNDPENRIRKKMLLEEIKANLSSDEDGSSDDEPEEGKKRTGKQNEENPGDEEAKNQVNSESDS [chain 1 A20R] has a Kd of 1.04 µM. In the case of chain 1 SVPVTVDDDDDDNDPENRIAKKMLLEEAKANLSSDEDGSSDDEPEEGKKRTGKQNEENPGDEEAKNQVNSESDS [chain 1 I28A], the Kd is reported as 0.4 µM. In the case of chain 1 SVPVTVDDDDDDNDPENRIAKKMLLEEQKANLSSDEDGSSDDEPEEGKKRTGKQNEENPGDEEAKNQVNSESDS [chain 1 I28Q], the Kd is reported as 7.35 µM. chain 1 SVPVTVDDDDDDNDPENRIAKKMLLEERKANLSSDEDGSSDDEPEEGKKRTGKQNEENPGDEEAKNQVNSESDS [chain 1 I28R] gave a Kd of 34.8 µM. With chain 1 SVPVTVDDDDDDNDPENRIAKKMRLEEIKANLSSDEDGSSDDEPEEGKKRTGKQNEENPGDEEAKNQVNSESDS [chain 1 L24R] the Kd was 73.5 µM. Work on chain 1 SVPVTVDDDDDDNDPENRIAKKMQLEEIKANLSSDEDGSSDDEPEEGKKRTGKQNEENPGDEEAKNQVNSESDS [chain 1 L24Q] yielded a Kd of 43.3 µM. Variant chain 1 SVPVTVDDDDDDNDPENRIAKKMALEEIKANLSSDEDGSSDDEPEEGKKRTGKQNEENPGDEEAKNQVNSESDS [chain 1 L24A] has a Kd of 8.33 µM.
